Experimental findings from PMC10180619 (Nature Communications, 2023) are described below.

As usually defined, the Kd is the constant that tells how readily two partners part at equilibrium. A high value points to lower affinity.

The target of assay [1] is SARS-CoV-2 Beta receptor binding domain (SARS-CoV-2, Beta variant (B.1.351), K417N | E484K | N501Y, biotin (EZ-Link Sulfo-NHS-LC-Biotin, average of four biotins per RBD molecule)). Put plainly: BLI. The conditions noted are these: both partners purified.
The target of assay [2] is SARS-CoV-2 Delta receptor binding domain (SARS-CoV-2, Delta variant (B.1.617.2), L452R | T478K, biotin (EZ-Link Sulfo-NHS-LC-Biotin, average of four biotins per RBD molecule)). The assay can be described thus: BLI. Particulars: both partners purified.

B1: ADI-81654 (Fab, V domains shown)
VH: QVQLKQSGPTLVKPTQTLTLTCTFSGFSLSTYGVGVGWIRQPPGKALEWLALIYYDDDKRYSPSLKSRLTITKDTSQNQVVLTMTNMDPVDTATYYCARHTIATIFDFDSWGQGTLVTVSS
VL: QSVLTQPASVSGSPGQSITISCTGTSSDVGGHNYVSWYQQHPGKAPKLMIYEVSNRPSGVSNRFSGSKSGNTASLTISGLQAEDEADYSCSSYASSTSPVVFGGVTKLTVL
B1: the Kd in assay [1] was determined as 2.56 nM; in assay [2], 1.83 nM.
